Results reported in patent US20240148892A1 (DUALITY BIOLOGICS SUZHOU, published 2024).

Columns and labels:
Assay in all cases: ELISA, B7 family protein immobilized on plate, serially diluted antibody
[1] = target: T1, Human B7-2 protein, His Tag (human, UniProt P42081 24-247)
T1 construct: Bought protein; also called ACRO CD6-H5223; not shown: His tag
T1 sequence (looked up): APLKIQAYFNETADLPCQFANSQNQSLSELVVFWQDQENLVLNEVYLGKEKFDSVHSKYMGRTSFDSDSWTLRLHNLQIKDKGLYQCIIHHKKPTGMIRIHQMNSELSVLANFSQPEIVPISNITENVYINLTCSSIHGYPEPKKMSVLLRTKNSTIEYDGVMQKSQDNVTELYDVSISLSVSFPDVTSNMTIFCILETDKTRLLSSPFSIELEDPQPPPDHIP
Description: (§1) Human PD-Ll protein (see the table above), human B7-H2 protein, human B7-H3 protein, human B7-H4 protein, human B7-H5 protein, human B7-H6 protein, human B7-1 protein, human B7-2 protein, human PD-L2 protein, human B7-H7 protein, and human BTNL2 protein were separately immobilized on 96-well plates by incubation at 4° C. overnight. The 96-well plates were then blocked by incubation with 1% BSA in PBS at 37° C. for 1 h. After blocking, the 96-well plates were washed 3 times with PBST (PBS containing 0.05% Tween 20). […] After incubation, the 96-well plates were washed 3 times with PBST, incubated with a secondary antibody (see the table above) in binding buffer at 37° C. for 1 h, and then washed again. TMB was added for color development, and the reaction was stopped by 1 M H₂SO₄.

Human PD-L1, His Tag = target: T2, Human PD-L1, His Tag (human, UniProt Q9NZQ7 19-238)
T2 construct: Bought protein; also called human PD-L1 protein; ACRO PD1-H5229; not shown: His tag
Description: as §1

[2] = target: T3, Human B7-H4 protein, His Tag (human, UniProt Q7Z7D3 29-258)
T3 construct: Bought protein; also called ACRO B74-H5222; not shown: His tag
T3 sequence (looked up): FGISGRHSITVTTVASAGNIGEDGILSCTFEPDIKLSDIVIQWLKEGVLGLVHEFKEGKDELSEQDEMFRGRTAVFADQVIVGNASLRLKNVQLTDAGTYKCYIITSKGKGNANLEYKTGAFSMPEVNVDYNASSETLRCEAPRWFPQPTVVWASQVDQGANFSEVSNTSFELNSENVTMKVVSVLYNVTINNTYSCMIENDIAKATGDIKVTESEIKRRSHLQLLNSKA
Description: as §1

Human B7-H5, His Tag = target: T4, Human B7-H5, His Tag (human, UniProt Q9H7M9 33-194)
T4 construct: Bought protein; also called human B7-H5 protein; ACRO B75-H52H0; not shown: His tag
T4 sequence (looked up): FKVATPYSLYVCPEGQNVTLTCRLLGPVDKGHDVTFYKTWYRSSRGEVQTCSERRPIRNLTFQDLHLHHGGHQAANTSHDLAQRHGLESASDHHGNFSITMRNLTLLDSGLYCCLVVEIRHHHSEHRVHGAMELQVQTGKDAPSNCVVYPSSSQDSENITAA
Description: as §1

[3] = target: T5, Human PD-L2, His Tag (confirmed by SPR) (human, UniProt Q9BQ51 20-219)
T5 construct: Bought protein; also called human PD-L2 protein; ACRO PD2-H5220; not shown: His tag
T5 sequence (looked up): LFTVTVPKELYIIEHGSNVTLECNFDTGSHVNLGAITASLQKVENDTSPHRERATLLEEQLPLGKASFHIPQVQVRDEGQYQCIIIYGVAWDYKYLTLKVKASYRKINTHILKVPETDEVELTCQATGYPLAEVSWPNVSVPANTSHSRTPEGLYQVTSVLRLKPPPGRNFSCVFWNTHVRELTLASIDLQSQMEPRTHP
Description: as §1

Human B7-H2, His Tag = target: T6, Human B7-H2, His Tag (human, UniProt O75144 19-258)
T6 construct: Bought protein; also called human B7-H2 protein; ACRO B72-H5221; not shown: His tag
T6 sequence (looked up): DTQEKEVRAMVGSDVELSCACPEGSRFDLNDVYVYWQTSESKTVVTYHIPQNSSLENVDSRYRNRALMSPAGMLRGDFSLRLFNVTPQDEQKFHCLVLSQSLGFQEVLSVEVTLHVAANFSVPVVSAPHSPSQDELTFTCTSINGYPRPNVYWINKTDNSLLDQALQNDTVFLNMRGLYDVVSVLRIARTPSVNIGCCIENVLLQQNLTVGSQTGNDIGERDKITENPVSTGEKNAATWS
Description: as §1

Human B7-H6 = target: T7, Human B7-H6 (human, UniProt Q68D85 25-262)
T7 construct: Bought protein; also called human B7-H6 protein; ACRO B76-H52H8
T7 sequence (looked up): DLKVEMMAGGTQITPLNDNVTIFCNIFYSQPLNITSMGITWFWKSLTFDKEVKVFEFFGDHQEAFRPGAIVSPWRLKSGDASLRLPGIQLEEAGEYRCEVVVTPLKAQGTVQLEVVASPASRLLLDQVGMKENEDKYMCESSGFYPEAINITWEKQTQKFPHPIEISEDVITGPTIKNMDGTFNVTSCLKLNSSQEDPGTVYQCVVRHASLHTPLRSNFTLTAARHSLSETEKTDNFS
Description: as §1

Measured: binding result

T2 sequence (Q9NZQ7 19-238 limits assumed): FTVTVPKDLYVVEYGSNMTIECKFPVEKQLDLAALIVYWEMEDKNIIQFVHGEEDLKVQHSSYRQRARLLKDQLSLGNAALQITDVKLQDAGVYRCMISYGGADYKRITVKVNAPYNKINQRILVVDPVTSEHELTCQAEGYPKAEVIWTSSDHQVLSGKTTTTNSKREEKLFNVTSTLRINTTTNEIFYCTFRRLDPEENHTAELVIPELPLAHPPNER

B1: W301088-1.145.16-z3-p1-uIgG1KV320 (antibody, V domains shown)
VH: QVQLQESGPGLVKPSQTLSLTCTVTDYSITGDYAWNWIRQHPGKGLEWIGYISYSGSTSYNPSLQSRVTISRDTSKNQFSLKLSSVTAADTAVYFCARSLGRRWYFVVWGQGTTVTVSS
VL: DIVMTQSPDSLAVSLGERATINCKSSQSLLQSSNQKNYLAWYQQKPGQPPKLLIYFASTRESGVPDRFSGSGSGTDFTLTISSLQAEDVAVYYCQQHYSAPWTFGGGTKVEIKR
notes: Humanized, PTM-removed (VL N027dQ) human IgG1 LALA kappa antibody; also called WBP301088; W301088-z3-p1
no binding: all assays above
